Data taken from PMC6046605.
Values joined by “and” are separate entries in the source; they are usually repeats but may differ in a detail not shown here. Equal values may be shown once.

What was measured:
[1] = target: murine norovirus (MNV) RdRp D331A mutant (murine norovirus (MNV)); test: not stated; D331A and L354D RdRp by themselves, in the absence of VPg; told only in the discussion
[2] = target: murine norovirus (MNV) RNA-dependent RNA polymerase (RdRp), native (murine norovirus (MNV)); test: SPR; Biacore2000; RdRp or mutant RdRp immobilised on a CM5 chip (amine coupling, sodium acetate pH 5.0); analyte in 20 mM Tris-HCl pH 8.0, 100 mM NaCl, 5 mM MgCl2; 1:1 Langmuir kinetics
[3] = target: murine norovirus (MNV) RdRp D331A mutant (murine norovirus (MNV)); test: as above
[4] = target: murine norovirus (MNV) RdRp L354D mutant (murine norovirus (MNV)); test: as above
[5] = target: murine norovirus (MNV) RNA-dependent RNA polymerase (RdRp), native (murine norovirus (MNV)); test: as above; remark: listed apart in the source
[6] = target: murine norovirus (MNV) RdRp L354D mutant (murine norovirus (MNV)); test: not stated; D331A and L354D RdRp by themselves, in the absence of VPg; told only in the discussion
[7] = target: murine norovirus (MNV) RNA-dependent RNA polymerase (RdRp), native (murine norovirus (MNV)); test: SPR; data not shown; immobilised RdRp; Biacore2000, 1:1 Langmuir kinetics
[8] = target: murine norovirus (MNV) RNA-dependent RNA polymerase (RdRp), native (murine norovirus (MNV)); test: negative-stain electron microscopy; RdRp alone, 1-6 μM protein, 1 h at room temperature, uranyl formate stain; 2D class averages compared with projections of the hexamer model
[9] = target: murine norovirus (MNV) RNA-dependent RNA polymerase (RdRp), native (murine norovirus (MNV)); test: crystal structure; RdRp incubated with VPg at a molar ratio of 1:2 with UTP or GTP, oligo(A) or oligo(C), 2 mM MnCl2, 2 mM MgCl2; P21, six monomers in the asymmetric unit; 3.1 Å
[10] = target: murine norovirus (MNV) RNA-dependent RNA polymerase (RdRp), native (murine norovirus (MNV)); test: cross-linking; 0.001% glutaraldehyde, room temperature 6 min; 50 mM HEPES pH 7.4, 5 mM MgCl2, 5 mM DTT, 1 μM oligo(A)15, 2 μM RdRp, 6 μM VPg; SDS-PAGE and western blot with anti-RdRp or anti-VPg antisera

murine norovirus (MNV) RdRp D331A mutant (enzyme)
stoichiometry N [1]: 6

murine norovirus (MNV) VPg(1-124), full length (natural protein)
Kd [2]: 8.7 nM | Kd [3]: 23 nM | Kd [4]: 210 nM | Kd [5]: 8.9 nM

murine norovirus (MNV) RdRp L354D mutant (enzyme)
stoichiometry N [6]: 6

murine norovirus (MNV) VPg(1-73) (domain or fragment)
Kd [7]: 17 nM

murine norovirus (MNV) RNA-dependent RNA polymerase (RdRp), native (enzyme)
Kd [7]: 2.2 nM | stoichiometry N [8]: 6 | stoichiometry N [9]: 6 | stoichiometry N [10]: 2 and 3 and 6
